{"source": "patent US20250011391A1", "about": "“ULTRA LIGHT-SENSITIVE NEUROPSIN-BASED OPTOGENETIC TOOL FOR ACTIVATING G q-COUPLED SIGNALING AND/OR ACTIVATING CELLS” (GENANS BIOTECHNOLOGY CO., LTD, priority 2021, published 2025)", "molecules": {"B1": {"name": "cOpn5: Chicken (Gallus gallus) Opn5 (neuropsin) ortholog, SEQ ID NO:1, GenBank NM_001130743.1 (protein, listed as Gallus lafayetii)", "chain": "MSGMASDCNSSSQEEYLPHYVQQEDPFASKLSREADIIAGFYLTVIGILSTLGNGYVIFMSSKRKKKLRPAEIMTVNLAVCDLGISVVGKPFSIISFFSHRWIFGWMGCRWYGWAGFFFGCGSLITMTAVSLDRYLKICHLAYGTWLKRHHAFICLALIWAYATFWATVPFAGVGSYAPEPFGTSCTLDWWLAQASVAGQAFVLSILFFCLLFPTAVIVFSYVKIILKVKSSTKEVAHYDTRIQNSHILEMKLTKVAMLICAGFLIAWIPYAVVSVWSAFGQPDSVPIQFSVVPTLLAKSAAMYNPIIYQVIDCKFACCRSGGPKTLQKKSSLKESRMYTLSSHRDSAALSGTQLEV"}}, "key": {"mouse cortical neurons": {"system": "mouse cortical neurons", "test": "Ca2+ imaging (jRGECO1a) of cOpn5-expressing neurons in brain slice preparations", "type": "cell-based", "details": "10 s; 100 μW/mm2; 473 nm", "source_text": "The application of cOpn5-mediated optogenetics in neurons is explored. Whether cOpn5 could mediate light-induced Ca^2+ signals is firstly examined. Using AAV and the pan-neuronal SYN promoter, cOpn5 and the genetically-encoded Ca^2+ sensor jRGECOla are expressed in mouse cortical neurons (FIG. 8a). […] Thus, cOpn5 also enables light-induced activation in neurons.\nb, Pseudocolor images show Ca^2+ signals before and after light stimulation (10 s; 100 μW/mm2; 473 nm). Scale bar, 10 μm."}, "[1]": {"system": "GABA neurons in the zona incerta (ZI) of VGAT-Cre mice", "test": "Food-foraging behavior task", "type": "in vivo, mouse", "details": "vs EGFP-expressing mice", "experimental": "Finally, the utility of cOpn5-mediated optogenetics for modulating animal behavior is assessed. The lateral hypothalamus (LH) is a brain center with known functions in reward processing and feeding behaviors^54,55. cOpn5 is expressed in the LH GABAergic neurons of VGAT-Cre mice and implanted optical fibers to deliver light pulses into the LH of freely behaving mice (FIG. 8g). […] Electrophysiological recordings on LH and ZI cOpn5-expressing neurons are performed to characterize the response profiles. The injection sites and placement of optical fibers are confirmed by whole brain slices (FIG. 10a-c). […] Thus, cOpn5 is effective for rapidly, accurately, and reversibly modulating animal behavioral states.\ni, Schematic diagram of the experimental setup for food foraging behavior. High-fat food pellets were used. cOpn5-EGFP was expressed in GABAergic neurons within the zonal incerta (ZI) of VGAT-Cre mice. EGFP was expressed as a control.\nj, Summary of cOpn5-mediated food foraging behaviors. Foraging time percentage was calculated upon receiving light stimulation until the mouse found the hidden food. ****P<0.0001; n=6 mice; unpaired t test. Error bars indicate S.E.M."}, "[2]": {"system": "MARCKS protein, a well-established target of PKC", "test": "Phosphorylation of MARCKS in cOpn5-expressing HEK 293T cells", "type": "cell-based", "details": "normalized to α-tubulin; PKC activity-dependent", "experimental": "(§1) Whether heterologous expression of the Opn5 orthologs from chicken, turtles, humans and mice (which share 80-90% protein sequence identity) have the capacity to mediate blue light-induced Gq signaling activation within HEK 293T cells is tested (FIG. 1a and table 7). Blue light for stimulation and the red intracellular calcium indicator Calbryte™ 630 AM dye are used to monitor the relative Ca^2+ response (FIG. 1b).\ng, Phosphorylation of MARCKS in cOpn5-expressing HEK 293T cells in the control group (no light stimulation), the light stimulation group, and light+staurosporine (ST, PKC inhibitor) group. The amount of p-MARCKS in the same fraction was normalized to the amount of α-tubulin. **P=0.0096, ***P=0.0004; Tukey's multiple comparisons test.\ne, One representative of phosphorylation of MARCKS in cOpn5-expressing HEK 293T cells in the control group (no light stimulation), the light stimulation group, and light+staurosporine group. The amount of p-MARCKS in the same fraction was normalized to the amount of α-tubulin."}, "[3]": {"system": "Gq signaling in HEK 293T cells", "test": "Light-induced Ca2+ signal (Calbryte 630 AM dye) in opsin-expressing HEK 293T cells", "type": "cell-based", "details": "for Light Sensitivity / Response amplitude: Ca2+ response amplitude: Table 8", "experimental": "as §1\nb, Pseudocolor images of the Ca2+ signal before and after blue light stimulation (10 s; 100 μW/mm^2; 488 nm) in HEK 293T cells expressing Opn5 from three species (Gallus gallus, Homo sapiens, and Mus musculus). Scale bar, 10 μm.\nCharacterizing the light-activating properties of cOpn5 heterologously expressed in HEK 293T cells is performed. […] The effects of different light durations on cOpn5-expressing HEK 293T cells are tested. […] Therefore, the light sensitivity of cOpn5 is 3-4 orders of magnitude higher than the reported values of the light-sensitive Gq-coupled GPCRs and even 2-3 orders higher than those of the commonly used optogenetic tool Channelrhodopsin-2 (ChR2)(Lin, 2011; Zhang et al., 2006) (table 8).\nThe performance of cOpn5 to that of opto-a1AR, a chimera GPCR engineered by mixing rhodopsin with Gq-coupled adrenergic receptor is compared. […] The performance of cOpn5 to that of opn4, a natural opsin which was reported as a tool for Gq signaling activating is also compared. […] Therefore, compared with existing opsin-based tools (opto-a1AR and opn4), cOpn5 is much more light-sensitive (˜3 orders more sensitive), requires much shorter time exposure (10 ms vs. 60 s), and produces stronger responses. […]\nExperiments description: the following table 9 is a partial list of cOpn5 orthologs from vertebrata tested in the present invention. Whole genes of all reported opsin5 orthologs from vertebrata (the vertebrates subphylum, including rotundia, cartilaginous fishes, bony fishes, Amphibia, reptila, ornitha and mammals) are synthetized, and expressed in HEK 293T cells. Calcium imaging with or without 470 nm blue light stimulation is performed to test the sensitivity of the opsin 5 orthologs in response to light. The time course of light-induced calcium signal reveal the activated degree of Gq signaling pathway and the sensitivity of these orthologs."}, "[4]": {"system": "neurons in slice preparations of the motor cortex, hippocampus, and dorsal striatum", "test": "Whole-cell patch-clamp recording of cOpn5-expressing neurons in slices", "type": "cell-based, mouse", "source_text": "The effect of light-induced cOpn5 activation on the electrophysiological properties of neurons in slice preparations of the motor cortex, hippocampus, and dorsal striatum is next investigated (FIG. 8d). Two types of activation patterns are observed. In a majority of recorded neurons, blue light pulses induce a small depolarizing current (˜20 pA) in the voltage-clamp mode, and induce delayed-yet-vigorous firing of action potentials in the current-clamp mode (FIG. 8e, left, n=12 neurons). […] In the other subset of neurons, brief light pulses rapidly evoked strong inward currents (100-1000 pA) and drove bursting firing of action potentials (FIG. 8e, right, n=6 neurons). […] Of note, unlike generated by ChR2 optogenetics^53, the action potential evoked by cOpn5 photostimulation is not time-locked to light pulses.\nd, Schematic diagram depicts optogenetic stimulation and whole-cell patch-clamp recording of cOpn5-expressing neurons in the cortex, striatum and hippocampus."}, "[5]": {"details": "10 ms 16 μW/mm2 470 nm, mean±S.E.M., n=10 cells"}}}
{"molecule": "B1", "values": [{"measurement": "Ca2+ transients in neurons on blue light pulses", "setting": "mouse cortical neurons", "value": "reliably evokes Ca^2+ transients"}, {"measurement": "time of foraging high fat food pellets on repeated light stimulation", "setting": "[1]", "value": "significantly increase in the time of foraging"}, {"measurement": "blue light-triggered phosphorylation of MARCKS protein", "setting": "[2]", "value": "triggers the phosphorylation of MARCKS protein"}, {"measurement": "light sensitivity higher than reported values of Channelrhodopsin-2 (ChR2)", "setting": "[3]", "value": "2-3 orders of magnitude"}, {"measurement": "light sensitivity higher than reported values of light-sensitive Gq-coupled GPCRs", "setting": "[3]", "value": "3-4 orders of magnitude"}, {"measurement": "more light-sensitive than opto-a1AR and opn4", "setting": "[3]", "value": "~3", "unit": "orders"}, {"measurement": "10% peak activation time of Ca2+ signal", "setting": "[3]; [5]", "value": "1.36 ± 0.55", "unit": "s"}, {"measurement": "90% peak activation time of Ca2+ signal", "setting": "[3]; [5]", "value": "2.37 ± 0.87", "unit": "s"}, {"measurement": "decay time τ of Ca2+ signal", "setting": "[3]; [5]", "value": "18.66 ± 4.98", "unit": "s"}, {"measurement": "Ca2+ signals without extracellular Ca2+", "setting": "[3]; 10 ms, 16 μW/mm2, 470 nm", "value": "resistant to the removal of extracellular Ca^2+"}, {"measurement": "light duration at which Ca2+ response achieves saturation", "setting": "[3]; 16 μW/mm2, 470 nm", "value": "over 10 ms"}, {"measurement": "Ca2+ response to longer-wavelength visible light (561 nm or above)", "setting": "[3]; 100 μW/mm2", "value": "completely ineffective"}, {"measurement": "Ca2+ response to UVA light (365 and 395 nm)", "setting": "[3]; 100 μW/mm2, versus 470 nm", "value": "less effective"}, {"measurement": "light intensity producing about half maximum response", "setting": "[3]; 470 nm, 10 ms", "value": "~4.8", "unit": "μW/mm^2"}, {"measurement": "light intensity producing full maximum response / full activation", "setting": "[3]; 470 nm, 10 ms", "value": 16, "unit": "μW/mm^2"}, {"measurement": "light duration required for full activation", "setting": "[3]; 470 nm, 16 μW/mm2", "value": 10, "unit": "ms"}, {"measurement": "Light Sensitivity", "setting": "[3]; HEK 293T cells, 10 ms stimulation, response ~3.0 ΔF/F", "value": 16, "unit": "μW/mm^2"}, {"measurement": "Response amplitude: Ca2+ response amplitude", "setting": "[3]; HEK 293T cells, 470 nm, 0.026 μW/mm2, >2 s", "value": "~1 (ΔE/F)"}, {"measurement": "Light Sensitivity", "setting": "[3]; HEK 293T cells, >2 s stimulation, response ~1", "value": 0.026, "unit": "μW/mm^2"}, {"measurement": "Response amplitude: Ca2+ response amplitude", "setting": "[3]; HEK 293T, light as in the row's sensitivity and duration columns", "value": "~3.0 (ΔF/F)"}, {"measurement": "light-induced increase in Ca2+ signal", "setting": "[3]; blue light 10 s, 100 μW/mm2, 488 nm, no exogenous retinal", "value": "~3 ΔF/F"}, {"measurement": "peak amplitudes of Ca2+ signals", "setting": "[3]; cOpn5-expressing cells, 10 ms blue light pulses at 16 μW/mm2", "value": "3-8 ΔF/F"}, {"measurement": "more rapid than opto-a1AR or opn4 (temporal resolution)", "setting": "[3]; in response to 10 ms light pulses", "value": "~3 orders of magnitude"}, {"measurement": "response kinetics versus hM3Dq-expressing cells", "setting": "[3]; light 10 s vs CNO puff 100 nM 10 s", "value": "faster and temporally more precise response"}, {"measurement": "wavelength eliciting the strongest Ca2+ transients", "setting": "[3]; wavelengths 365-630 nm at fixed 100 μW/mm2", "value": 470, "unit": "nm"}, {"measurement": "firing rate of neurons after pulsed 473 nm light stimulation", "setting": "[4]; 1 Hz, 5 s, n=18", "value": "increased"}, {"measurement": "firing rate across repetitive trials of light stimulation", "setting": "[4]; 10 ms/pulse at 10 Hz", "value": "non-attenuated"}, {"measurement": "spike latency after the initial light pulse, higher frequencies of light pulses", "setting": "[4]; majority-type neurons", "value": "~3", "unit": "s"}, {"measurement": "spike latency after the initial light pulse, lower frequency of light pulses", "setting": "[4]; majority-type neurons", "value": "~5", "unit": "s"}, {"measurement": "inward currents evoked by brief light pulses", "setting": "[4]; other subset of neurons (n=6)", "value": "100-1000 pA"}, {"measurement": "depolarizing current induced by blue light pulses", "setting": "[4]; voltage-clamp, majority of recorded neurons (n=12)", "value": "~20", "unit": "pA"}]}
